Values quoted from earlier work as cited in publication PMC3991732.

Molecular target: ubiquitin (Homo sapiens) (UniProt P0CG48)
Assay: NMR

Chain of CD2AP SH3-C (Q9Y5K6 269-330): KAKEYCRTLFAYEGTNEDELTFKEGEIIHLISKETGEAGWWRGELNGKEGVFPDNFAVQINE

In the case of CD2AP SH3-C (from UniProt Q9Y5K6), the Kd is given as 132 µM.
